Measurements: patent publication US20170028021A1, “COMPOSITIONS AND METHODS FOR TREATING NEURODEGENERATIVE DISEASE” (MYELIN THERAPEUTICS, INC., priority 2015, published 2017)

System: primary mouse OPs
Experiment: Proliferation of oligodendrocyte precursor (OP) cultures, scoring NG2+ and NG2+/BrdU+ cells
Assay type: cell-based
Details: TLQP-21 3 μM, AQEE-30 3 μM, BDNF 50 ng/μl, analyzed 48 hours later, vs DMSO
Protocol: The growth factor VGF was of particular interest because it is reported to be highly expressed in OPs. Furthermore, its upregulation upon exercise activates the anti-depressant response in mammals, and maintains BDNF expression in a VGF-BDNF positive feedback loop. […] VGF is cleaved to produce numerous C-terminal bioactive peptides including TLQP-62, TLQP-21, and AQEE-30, amongst others. As such, oligodendrocyte precursor (OP) cultures were treated with well-characterized peptides that trigger BDNF production TLQP-21 (3 μM), AQEE-30 (3 μM), BDNF (50 ng/μl), or DMSO along with the proliferation marker BrdU and then analyzed 48 hours later by scoring the number of NG2+/BrdU+ cells. In parallel, the total number of NG2+ cells was counted to assess for endogenous proliferation. […] Indeed, VGF protein levels are robust early in the OP differentiation cascade (FIG. 11).
Mouse OPs were isolated from the cortices of PO WT neonates by expansion within mixed glial culture for 8 days, purified, and subsequently differentiated as an OP-enriched culture. At DIV1 post-purification, cells were treated with DMSO, BDNF, VGF AQEE-30 or VGF TLQP-21 at 3 uM and allowed to grow for an additional 48 hrs. […] DAPI stains all nuclei. […] Scale bar, […]. FIG. 10C depicts quantitation of the average dendritic length 48 hrs post-peptide treatment. **P<0.01, n=4 independent coverslips per condition. […]

B1: BDNF: brain-derived neurotrophic factor, comparison treatment in OP cultures (protein, UniProt P23560 19-247, looked up)
Neurotrophic factor BDNF …: APMKEANIRGQGGLAYPGVRTHGTLESVNGPKAGSRGLTSLADTFEHVIEELLDEDQKVRPNEENNKDADLYTSRVMLSSQVPLEPPLLFLLEEYKNYLDAANMSMRVRRHSDPARRGELSVCDSISEWVTAADKKTAVDMSGGTVTVLEKVPVSKGQLKQYFYETKCNPMGYTKEGCRGIDKRHWNSQCRTTQSYVRALTMDSKKRIGWRFIRIDTSCVCTLTIKRGR
In the case of B1, the “total number of NG2+ cells” value is reported as “no significant differences” and the “total number of proliferating Ng2+/BrdU+ OPs” value (with BrdU) is reported as “no significant differences”.
